The chains are these.
B1: Hairpin Ribozyme (parent)
chain: GUCCUCUUUCACGUGCGCGUGAAAGAGAGAAGUGAACCAGAGAAACACACGUUGUGGUAUAUUACCUGGUA

The variants in the data set derive from B1. Description: self-cleavage, relative activity (ratio to wild type); higher = more cleavage; co-transcriptional.
Turning to U63C G68C, the self-cleavage was 0.133.
U63C G68A: the self-cleavage worked out at 0.192.
The same measure for C65G G69A: 0.138; for G68C U70C: 0.339; for U62A A64U: 0.197.
As for U62A A64G, the self-cleavage turned out to be 0.093.
Consider C65U G68U, for which the self-cleavage is 0.327.
Regarding C65U G68C, the self-cleavage turned out to be 0.108.
Turning to U58C G68A, the self-cleavage was 0.301.
As to U58C G68U, the self-cleavage is 0.169.
To A61U A64U belongs 0.3; to U60C U63C, 0.314; to A64C U67C, 0.151.
Consider A61C G69A, for which the self-cleavage is 0.159.
Regarding A61C G69U, the self-cleavage is 0.145.
Regarding U60G U63A, the self-cleavage is 0.173.
Take U60G U63G: the self-cleavage was 0.0801.
Take A61C U67A: the self-cleavage turned out to be 0.252.
On to A61C U67C, for which the self-cleavage worked out at 0.107.
To G57U U62G belongs 0.176.
As for G57A C66A, the self-cleavage stood at 0.215.
As to U62G A71U, the self-cleavage amounted to 0.367.
For U70C, the self-cleavage worked out at 0.924.
For the variant U70G, the self-cleavage stood at 0.844.
As to U70A, the self-cleavage came to 0.926.
As to G57U C66A, the self-cleavage amounted to 0.219.
Take G57U C66U: the self-cleavage was 0.244.
For G57C A64C, the self-cleavage was 0.178.
For the variant U60G A71U, the self-cleavage turned out to be 0.395.
As to U58A U60C, the self-cleavage came out at 0.715.
On to G57U U67G, for which the self-cleavage was 0.152.
In the case of U62A A71C, the self-cleavage came out at 0.325.
On to U62A A71U, for which the self-cleavage turned out to be 0.169.
As to A61G C66A, the self-cleavage was determined as 0.246.
As for A59C C65G, the self-cleavage was 0.246.
Take A59C C65A: the self-cleavage turned out to be 0.0683.
Consider A59C C65U, for which the self-cleavage worked out at 0.23.
On to C66G U67G, for which the self-cleavage came out at 0.211.
As for U67G G69A, the self-cleavage worked out at 0.134.
To C65U A71U belongs 0.441.
In the case of U58A U70G, the self-cleavage came out at 0.493.
Regarding U58A U70A, the self-cleavage turned out to be 0.588.
With U58A U70C, the self-cleavage was determined as 0.728.
With G56U A64U, the self-cleavage amounted to 0.173.
U63G U67C: the self-cleavage turned out to be 0.149.
With U58C U60C, the self-cleavage was found to be 1.19.
To U58C U60A belongs 0.845; to G57U A61U, 0.203; to A59U A61G, 0.166.
U67A G69A: the self-cleavage was determined as 0.116.
Consider A61U, for which the self-cleavage came out at 0.213.
On to A61G, for which the self-cleavage was determined as 0.183.
To A61C belongs 0.214.
For U58A U67C, the self-cleavage is 0.118.
In the case of U58A U67A, the self-cleavage was found to be 0.273.
Consider U62G A64U, for which the self-cleavage came out at 0.0808.
To U62G A64G belongs 0.166; to U62G A64C, 0.2; to A59U G68C, 0.0787.
The same measure for G57A A71U: 0.187; for C66A G69A: 0.268; for G56U U62G: 0.104.
With U63A U70A, the self-cleavage stood at 0.0404.
The same measure for C65G U67C: 0.183; for G57C U62G: 0.155.
Regarding U60G C65U, the self-cleavage was found to be 0.183.
As for U63A C65A, the self-cleavage is 0.219.
For A59G U67C, the self-cleavage was 0.128.
In the case of U62A G69A, the self-cleavage was 0.176.
Consider U62A G69U, for which the self-cleavage came to 0.04.
Consider U62A G69C, for which the self-cleavage was 0.113.
Regarding A64U U70G, the self-cleavage was 0.155.
As for U58A G68U, the self-cleavage worked out at 0.134.
For the variant U58A G68A, the self-cleavage stood at 0.272.
With A61U C65U, the self-cleavage stood at 0.188.
To A61U C65G belongs 0.193.
A64C A71C: the self-cleavage is 0.28.
On to A59U A71C, for which the self-cleavage came out at 0.153.
As to A64C U70C, the self-cleavage was found to be 0.0963.
Take U63A C66G: the self-cleavage was 0.0954.
The same measure for U63A C66A: 0.118.
To U60A C65A belongs 0.807.
For U63C U70A, the self-cleavage worked out at 0.189.
For G57A U63G, the self-cleavage was 0.182.
G57A U63C: the self-cleavage was 0.151.
For the variant U60A G68U, the self-cleavage was 0.189.
For the variant U60A G68C, the self-cleavage turned out to be 0.236.
Consider A61G U62C, for which the self-cleavage came to 0.0932.
Regarding U60A A61G, the self-cleavage stood at 0.216.
A64G G68A: the self-cleavage worked out at 0.226.
For G57U A71U, the self-cleavage amounted to 0.223.
On to G69C A71C, for which the self-cleavage was determined as 0.609.
For G69C A71G, the self-cleavage came to 0.316.
Consider U58A C66A, for which the self-cleavage turned out to be 0.18.
Turning to U60G G68U, the self-cleavage is 0.296.
On to G57U C65A, for which the self-cleavage was found to be 0.271.
On to G57U C65U, for which the self-cleavage came out at 0.25.
As for U60C U62G, the self-cleavage was 0.155.
U67A U70G: the self-cleavage was found to be 0.186.
The same measure for U67A U70A: 0.237; for G57C A61U: 0.161; for U67A A71C: 0.381.
The same measure for A59G U60C: 0.238; for A59G U60G: 0.311.
Regarding A59G U60A, the self-cleavage is 0.164.
Consider C65G C66G, for which the self-cleavage is 0.178.
In the case of C65G C66U, the self-cleavage was determined as 0.429.
In the case of U62A C66A, the self-cleavage was determined as 0.12.
As for U60C A71U, the self-cleavage came out at 1.18.
The same measure for U60C A71C: 1.66; for U60C A71G: 1.08; for G56C U67G: 0.203.
In the case of G56C U67A, the self-cleavage turned out to be 0.205.
In the case of U62C A71C, the self-cleavage was 0.595.
As to U58A A61U, the self-cleavage is 0.216.
The same measure for U58A A61G: 0.27.
To U58A A61C belongs 0.0874.
On to U60C C66A, for which the self-cleavage turned out to be 0.31.
On to U60C C66U, for which the self-cleavage amounted to 0.451.
Take G56U C65G: the self-cleavage came to 0.104.
As to G56U C65U, the self-cleavage was 0.276.
As for G56U C65A, the self-cleavage turned out to be 0.203.
For the variant U63G, the self-cleavage stood at 0.171.
As for U63C, the self-cleavage was 0.186.
On to U63A, for which the self-cleavage came out at 0.188.
For the variant G68C A71C, the self-cleavage is 0.436.
The same measure for G68C A71G: 0.233.
To G57A A59U belongs 0.0919.
To U62G C65G belongs 0.223.
Turning to U62G C65A, the self-cleavage was 0.157.
Take G68U G69A: the self-cleavage came out at 0.3.
Consider G68U G69U, for which the self-cleavage stood at 0.183.
For C66A U67G, the self-cleavage was 0.091.
The same measure for U60G C66U: 0.361.
Consider U60G C66A, for which the self-cleavage came to 0.0537.
The same measure for C66U G69U: 0.187.
Consider C66U G69A, for which the self-cleavage turned out to be 0.216.
The same measure for C66U G69C: 0.198.
On to U60G U70G, for which the self-cleavage turned out to be 0.514.
In the case of U63A A64U, the self-cleavage turned out to be 0.198.
In the case of U58G U62C, the self-cleavage was found to be 0.187.
In the case of U58G U62A, the self-cleavage turned out to be 0.232.
For the variant U60C A61G, the self-cleavage was 0.228.
As for A61G G69A, the self-cleavage amounted to 0.16.
As for A59G U70C, the self-cleavage stood at 0.192.
Turning to A59G U70G, the self-cleavage is 0.161.
Regarding A61U U62C, the self-cleavage amounted to 0.197.
As to A61U U62G, the self-cleavage turned out to be 0.0473.
U62G U63A: the self-cleavage is 0.0488.
The same measure for U62G U63C: 0.243; for U62G U63G: 0.191.
As to C65A U67G, the self-cleavage is 0.197.
To U63A G68A belongs 0.276.
The same measure for U63A G68U: 0.225; for U63A G68C: 0.225; for G69A U70G: 0.325.
The same measure for G69A U70C: 0.387.
As to U60C G69C, the self-cleavage was determined as 0.326.
Consider A64U G68A, for which the self-cleavage came out at 0.173.
Turning to U58C C66A, the self-cleavage was 0.201.
To U58C C66U belongs 0.546.
The same measure for G57A U60C: 0.205; for U60C U67C: 0.329.
For U60C U67G, the self-cleavage was found to be 0.207.
In the case of U60C G68U, the self-cleavage is 0.204.
Consider U60C G68A, for which the self-cleavage was determined as 0.26.

Values taken from the RNAGym collection of RNA variant scans (doi:10.7554/elife.80360).
